According to patent US20210395346A1 (SEOUL NATIONAL UNIVERSITY R AND DB FOUNDATION, published 2021):

Tests used:
[1] = biological target: T1, recombinant SARS-CoV-2 RBD protein (wild-type) (SARS-CoV-2; human, UniProt P0DTC2 306-543); assay: ELISA (FIG. 18B)
T1 construct: range 306-543

[2] = biological target: T1, recombinant SARS-CoV-2 RBD protein …; assay: ELISA (FIG. 18C)
[3] = biological target: T1, recombinant SARS-CoV-2 RBD protein …; assay: ELISA (FIG. 18A)
[4] = biological target: T1, recombinant SARS-CoV-2 RBD protein …; assay: ELISA (FIG. 18E)

B1: A-2F1 antibody (format in FIG. 18 not stated) (antibody, V domains shown)
VH: QVQLVQSGGGLIQPGGSLRLSCAASGVTVSSNYMSWVRQAPGKGLEWVSVIYSGGSTFYADSVKGRFTISRDNSKNTLYLQMNSLRAEDTAVYYCARDLMEAGGMDVWGQGSTVTVSS
VL: ELALTQPPSASGSPGQSVTISCTASSSDIGASNHVAWYQQNPGKAPKLMIYGVSGRPSGVPDRFSGSKSGNTASLTVSGLQAEDEADYYCSSYAGSNILIFGGGTKLTVL
B1: binds [1].

B2: A-2H4 antibody (format in FIG. 18 not stated) (antibody, V domains shown)
VH: QMQLVESGGGLVQPGRSLRLSCAASGFTFSVYGMHWVRQAPGKGLEWVAVISYDGSNKYYADSVKGRFSISRDNSKNTLYLQMNSLRGEDTAVYYCAKGGPRPVVKAYGELDYYGMDVWGQGTTVTVSS
VL: ELALTQPASVSGSPGQSITISCTGTSSDIGGYEYVSWYQQHPGKAPKLIIYDVRDRPSGISNRFSGSKSGNTASLIISSLQAGDEADYYCFSYTSSGTYVFGSATKVTVL
B2: binds [2].

B3: A-1H4 antibody (format in FIG. 18 not stated) (antibody, V domains shown)
VH: EVQLVESGGGLVQPGRSLRLSCAASGFTVSSNYMSWVRQAPGKGLEWVSGIYSGGSTYYADSVKGRFTISRDNSKNTLYLQMNSLRAEDTAVYYCARDLQEAGAFDIWGQGTMVTVSS
VL: ELQLTQSPSFLSASVGDRVTITCRASQGISSYLAWYQQKPGKAPKLLIYAASTLQSGVPSRFSGSGSGTEFTLTISSLQPEDFATYYCQQLNSYPRLTFGGGTKVEIK
B3: binds [3].

B4: E-3G9 antibody (format in FIG. 18 not stated) (antibody, V domains shown)
VH: QMQLVQSGAEVKKPGASVKVSCKASGHTITSYYMHWVRQAPGQGLEWMGIINPSGGSTSYAQKFQGRVTMTRDTSTSTVYMELSSLRSEDTAVYYCAREGVWDSSGYSSFDYWGQGTLVTVSS
VL: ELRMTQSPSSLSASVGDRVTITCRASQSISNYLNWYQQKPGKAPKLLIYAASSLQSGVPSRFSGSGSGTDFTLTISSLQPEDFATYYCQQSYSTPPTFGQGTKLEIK
B4: binds [4].
